The values below come from patent US8709741B2, “Methods of diagnosing a plasmodium infection” (priority 2009, dated 2014).

This test deals with P. falciparum. Kind of test: Anti-Plasmodium activity assay in Albumax II (serum substitute). It counts as cell-based. Particulars: Albumax II. On the procedure:
The chloroquine-resistant P. falciparum FcB1/Colombian strain was used. Under the following culture conditions, the in vitro life cycle of the FcB1 strain was 48 hours. Cultures were grown in complete medium consisting of RPMI 1640 (Life Technologies, Inc.) supplemented with 11 mM glucose, 27.5 mM NaHCO3, 100 UI/mL penicillin, 100 μg/mL streptomycin, adjusted to pH 7.4 before addition of heat-inactivated human serum (A+ blood group, 8% final) or Albumax II® (0.5% final), according to the procedure of Trager and Jensen (1976). Parasites were routinely grown at 37° C. in human A+ RBCs (Red blood cells) at a 2% haematocrit and 2-6% parasitemia, in a 3% CO2, 6% O2 and 91% N2 atmosphere. Semi-synchronized cultures were established by Sorbitol (Lambros) treatment. […] Parasitaemia and stage distribution were determined by optical examination of Diff-Quick stained culture smears. […]
Dried preparations of the purified recombinant human sPLA2s were re-suspended at high concentration (usually 50 μM) in RPMI 0.05% BSA, and then tested individually for their capacity to inhibit the in vitro intra-erythrocytic development of P. falciparum. […] Radioactivity was measured with a 1450 Microbeta counter (Wallac, Perkin Elmer). Percentage of growth inhibition was calculated from the parasite-associated radioactivity compared with control without sPLA2. Values for the IC50 were determined from dose-response curves. […]

B1: X: recombinant human group X secreted phospholipase A2 (protein, UniProt O15496 43-165, looked up)
Group 10 secretory …: GILELAGTVGCVGPRTPIAYMKYGCFCGLGGHGQPRDAIDWCCHGHDCCYTRAEEAGCSPKTERYSWQCVNQSVLCGPAENKCQELLCKCDQEIANCLAQTEYNLKYLFYPQFLCEPDSPKCD
As for B1, the “inhibition of Plasmodium growth in Albumax II” value was “does not efficiently inhibit Plasmodium growth”.
